Test results reported in paper PMC3858276, “Completion of Proteomic Data Sets by Kd Measurement Using Cell-Free Synthesis of Site-Specifically Labeled Proteins” (PLoS ONE, 2013).
Where no end group is shown, it is not given here.

T1: Rasa1b (Rasa1 sequence 174-447) without biotin (for MST) (UniProt P20936 174-447)
T1 construct: same linear template as m11, cloned into pIX3.0; source: cell-free (RTS500 PM HY kit, plasmid pIX3.0), partly purified by buffer exchange to PBS and ultracentrifugation
T1 sequence (looked up): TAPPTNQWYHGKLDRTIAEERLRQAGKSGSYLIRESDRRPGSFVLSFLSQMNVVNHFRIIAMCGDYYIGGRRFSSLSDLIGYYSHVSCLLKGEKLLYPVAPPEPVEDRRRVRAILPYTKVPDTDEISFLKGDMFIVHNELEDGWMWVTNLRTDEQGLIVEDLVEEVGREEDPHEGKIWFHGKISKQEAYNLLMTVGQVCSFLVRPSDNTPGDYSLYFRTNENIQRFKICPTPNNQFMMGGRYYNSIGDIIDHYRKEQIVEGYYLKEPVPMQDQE

B1: SLP-76 SH2 domain without biotin (for MST) (domain or fragment, UniProt Q13094 422-530, looked up)
chain: WYVSYITRPEAEAALRKINQDGTFLVRDSSKKTTTNPYVLMVLYKDKVYNIQIRYQKESQVYLLGTGLRGKEDFLSVSDIIDYFRKMPLLLIDGKNRGSRYQCTLTHAA
notes: SLP-76; same linear template as m10, cloned into pIX3.0; source: cell-free (RTS500 PM HY kit, plasmid pIX3.0), partly purified by buffer exchange to PBS and ultracentrifugation
B2: phosphorylated SNAP-ADAP fusion protein (ADAP amino acids 570-690) (domain or fragment, human, UniProt O15117 570-690, looked up)
chain: DYDSLKLKKDSLGAPSRPIEDDQEVYDDVAEQDDISSHSQSGSGGIFPPPPDDDIYDGIEEEDADDGFPAPPKQLDMGDEVYDDVDTSDFPVSSAEMSQGTNVGKAKTEEKDLKKLKKQEK
modifications: phosphotyrosine (in vitro phosphorylation by Fyn kinase, approx. 90% of each phosphorylation site; sites in Table S1); BG-647 dye on the SNAP-tag
notes: adhesion and degranulation promoting adapter protein (ADAP), human, section 570-690; Cloned into the SNAP-tag vector pSET7-26b (NEB) via BamHI, XhoI; also called ADAP-P; phosphorylated ADAP; not shown: SNAP-tag, N-terminal, kept
B3: RasaN (N-terminal SH2 domain of Rasa1) without biotin (for MST) (domain or fragment, UniProt P20936 181-272, looked up)
chain: WYHGKLDRTIAEERLRQAGKSGSYLIRESDRRPGSFVLSFLSQMNVVNHFRIIAMCGDYYIGGRRFSSLSDLIGYYSHVSCLLKGEKLLYPV
notes: Rasa1, isolated N-terminal SH2 domain; same linear template as m17, cloned into pIX3.0; source: cell-free (RTS500 PM HY kit, plasmid pIX3.0), partly purified by buffer exchange to PBS and ultracentrifugation
B4: phosphorylated SNAP-YEEI fusion (middle T antigen aa 315-331) (peptide)
chain: THQEEEEPQYEEIPIYL
modifications: not fully specified; also: tyrosine phosphorylation in vitro by Fyn, degree not placed
notes: Middle T antigen of Hamster Polyomavirus, aa 315-331 with the Y324EEI motif; also called phosphorylated YEEI; YEEI fusion construct; not shown: SNAP-tag, N-terminal, kept
B5: Lck SH2 domain without biotin (for MST) (domain or fragment, UniProt P06239 127-224, looked up)
chain: WFFKNLSRKDAERQLLAPGNTHGSFLIRESESTAGSFSLSVRDFDQNQGEVVKHYKIRNLDNGGFYISPRITFPGLHELVRHYTNASDGLCTRLSRPC
notes: Lck, SH2 domain; same linear template as m8, cloned into pIX3.0; source: cell-free (RTS500 PM HY kit, plasmid pIX3.0), partly purified by buffer exchange to PBS and ultracentrifugation
B6: SH2D1A without biotin (for MST) (natural protein, UniProt O60880 1-128, looked up)
chain: MDAVAVYHGKISRETGEKLLLATGLDGSYLLRDSESVPGVYCLCVLYHGYIYTYRVSQTETGSWSAETAPGVHKRYFRKIKNLISAFQKPDQGIVIPLQYPVEKKSSARSTQGTTGIREDPDVCLKAP
notes: SH2D1A; same linear template as m7, cloned into pIX3.0; source: cell-free (RTS500 PM HY kit, plasmid pIX3.0), partly purified by buffer exchange to PBS and ultracentrifugation

Tests used:
Conditions in all cases: one partner purified
[1] = target: B2; assay: MST; SH2 proteins (only partly purified) serially diluted in 1x PBS with 1.75% (v/v) E. coli extract; fluorescent ADAP at 12 nM; 5 min at RT; Monolith NT.115
[2] = target: T1, Rasa1b (Rasa1 sequence 174-447) without …; assay: as above
[3] = target: T2, Src SH2 domain without biotin (for MST) (UniProt P12931 151-248); assay: MST; as for ADAP, with the fluorescent YEEI fusion and 0.05% Tween-20 (v/v) added to the interaction buffer; SH2 proteins (only partly purified) serially diluted
T2 construct: Src, SH2 domain; same linear template as m6, cloned into pIX3.0; source: cell-free (RTS500 PM HY kit, plasmid pIX3.0), partly purified by buffer exchange to PBS and ultracentrifugation

Binder | Kd [1] [nM] | other results
B1 | ~400 | 
B2 |  | Kd [2]: ~100 nM
B3 | ~100 | 
B4 |  | Kd [3]: ~515 nM
B5 | ~1000 | 
B6 |  | fold weaker binding than the SH2 domains of Src, Lck and Fyn [1]: 6 fold
